Laboratory results published in the supplement of paper PMC10567573.

B1: USP39 (parent)
chain: FQGSMRIFTKKLPHPDLPAEEKEQ
B2: FBXO3 (parent)
chain: HDPLWRRHCKKYWLISEEEKTQKN

Variants of: B1
Assay: protein stability index of a GFP-peptide fusion (GPS, HEK-293T) (PSI 1-6); higher = more stable
Conditions: c terminus: a fixed tail appended
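Also: lentivirally expressed fusions sorted by FACS into six bins by GFP to DsRed ratio, PSI derived from sequencing read proportions per bin multiplied by bin number.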

| Variant | protein stability index |
| --- | --- |
| FQGSMRIFTKKLPHPDLPAEEKHQ [E23H] | 2.18 |
| FQGSMRIFTKKLPHPDLPAEEKGQ [E23G] | 2.21 |
| FQGSMRIFTKKLPHPDLPAEEKCQ [E23C] | 1.79 |
| FQGSMRIFTKKLPHPDLPAEEKLQ [E23L] | 1.69 |
| FQGSMRIFTKKLPHPDLPAEEKWQ [E23W] | 2.19 |
| FQGSMRIFTKKLPHPDLPAEEKIQ [E23I] | 1.57 |
| FQGSMRIFTKKLPHPDLPAEEKKQ [E23K] | 1.84 |
| FQGSMRIFTKKLPHPDLPAEEKMQ [E23M] | 1.85 |
| FQGSMRIFTKKLPHPDLPAEEKPQ [E23P] | 1.84 |
| FQGSMRIFTKKLPHPDLPAEEKVQ [E23V] | 1.47 |
| FQGSMRIFTKKLPHPDLPAEEKSQ [E23S] | 1.98 |
| FQGSMRIFTKKLPHPDLPAEEKAQ [E23A] | 1.65 |
| FQGSMRIFTKKLPHPDLPAEEKFQ [E23F] | 1.38 |
| FQGSMRIFTKKLPHPDLPAEEKRQ [E23R] | 1.71 |
| FQGSMRIFTKKLPHPDLPAEEKNQ [E23N] | 2.1 |
| FQGSMRIFTKKLPHPDLPAEEKQQ [E23Q] | 1.64 |
| FQGSMRIFTKKLPHPDLPAEEKTQ [E23T] | 1.61 |
| FQGSMRIFTKKLPHPDLPAEEKYQ [E23Y] | 1.66 |
| FQGSMRIFTKKLPHPDLPAEEKDQ [E23D] | 2.16 |
| FQGSMRIFTKKLPHPDLPAEEREQ [K22R] | 2.54 |
| FQGSMRIFTKKLPHPDLPAEEVEQ [K22V] | 2.48 |
| FQGSMRIFTKKLPHPDLPAEESEQ [K22S] | 1.88 |

| Variant | protein stability index |
| --- | --- |
| FQGSMRIFTKKLPHPDLPAEEYEQ [K22Y] | 1.54 |
| FQGSMRIFTKKLPHPDLPAEEWEQ [K22W] | 1.93 |
| FQGSMRIFTKKLPHPDLPAEETEQ [K22T] | 1.93 |
| FQGSMRIFTKKLPHPDLPAEEKEP [Q24P] | 1.83 |
| FQGSMRIFTKKLPHPDLPAEEKEY [Q24Y] | 1.62 |
| FQGSMRIFTKKLPHPDLPAEEKEN [Q24N] | 2.12 |
| FQGSMRIFTKKLPHPDLPAEEKEA [Q24A] | 2.05 |
| FQGSMRIFTKKLPHPDLPAEEKEF [Q24F] | 1.87 |
| FQGSMRIFTKKLPHPDLPAEEKEH [Q24H] | 2.05 |
| FQGSMRIFTKKLPHPDLPAEEKEL [Q24L] | 1.91 |
| FQGSMRIFTKKLPHPDLPAEEKEM [Q24M] | 2.05 |
| FQGSMRIFTKKLPHPDLPAEEKEG [Q24G] | 2.42 |
| FQGSMRIFTKKLPHPDLPAEEKEE [Q24E] | 1.81 |
| FQGSMRIFTKKLPHPDLPAEEKED [Q24D] | 2.32 |
| FQGSMRIFTKKLPHPDLPAEEKEW [Q24W] | 1.33 |
| FQGSMRIFTKKLPHPDLPAEEKEK [Q24K] | 2.37 |
| FQGSMRIFTKKLPHPDLPAEEKEV [Q24V] | 1.52 |
| FQGSMRIFTKKLPHPDLPAEEKEI [Q24I] | 2.13 |
| FQGSMRIFTKKLPHPDLPAEEKES [Q24S] | 2.14 |
| FQGSMRIFTKKLPHPDLPAEEKET [Q24T] | 2.1 |
| FQGSMRIFTKKLPHPDLPAEEKEC [Q24C] | 2.15 |
| FQGSMRIFTKKLPHPDLPAEEKER [Q24R] | 2.15 |

Variants of: B2
Assay: as above
Conditions: c terminus: a fixed tail appended

| Variant | protein stability index |
| --- | --- |
| HDILWRRHCKKYWLISEEEKTQKN [P3I] | 3.08 |
| HDTLWRRHCKKYWLISEEEKTQKN [P3T] | 3.84 |
| HDCLWRRHCKKYWLISEEEKTQKN [P3C] | 3.02 |
| HDHLWRRHCKKYWLISEEEKTQKN [P3H] | 2.97 |
| HDFLWRRHCKKYWLISEEEKTQKN [P3F] | 2.41 |
| HDDLWRRHCKKYWLISEEEKTQKN [P3D] | 3.33 |
| HDVLWRRHCKKYWLISEEEKTQKN [P3V] | 3.84 |
| HDGLWRRHCKKYWLISEEEKTQKN [P3G] | 3.1 |
| HDELWRRHCKKYWLISEEEKTQKN [P3E] | 3.45 |
| HDLLWRRHCKKYWLISEEEKTQKN [P3L] | 3.12 |
| HDMLWRRHCKKYWLISEEEKTQKN [P3M] | 3.33 |
| HDSLWRRHCKKYWLISEEEKTQKN [P3S] | 3.38 |
| HDALWRRHCKKYWLISEEEKTQKN [P3A] | 3.58 |
| HDNLWRRHCKKYWLISEEEKTQKN [P3N] | 3.49 |
| HDYLWRRHCKKYWLISEEEKTQKN [P3Y] | 2.75 |
| HDQLWRRHCKKYWLISEEEKTQKN [P3Q] | 3.5 |
| HDKLWRRHCKKYWLISEEEKTQKN [P3K] | 3.03 |
| HDWLWRRHCKKYWLISEEEKTQKN [P3W] | 2.44 |
| HDRLWRRHCKKYWLISEEEKTQKN [P3R] | 2.91 |
| HDPLWRRICKKYWLISEEEKTQKN [H8I] | 1.63 |
| HDPLWRRLCKKYWLISEEEKTQKN [H8L] | 1.88 |
| HDPLWRRCCKKYWLISEEEKTQKN [H8C] | 2.03 |
| HDPLWRRECKKYWLISEEEKTQKN [H8E] | 3.63 |
| HDPLWRRKCKKYWLISEEEKTQKN [H8K] | 2.89 |
| HDPLWRRACKKYWLISEEEKTQKN [H8A] | 2.63 |

| Variant | protein stability index |
| --- | --- |
| HDPLWRRNCKKYWLISEEEKTQKN [H8N] | 3.15 |
| HDPLWRRMCKKYWLISEEEKTQKN [H8M] | 2.23 |
| HDPLWRRFCKKYWLISEEEKTQKN [H8F] | 1.73 |
| HDPLWRRDCKKYWLISEEEKTQKN [H8D] | 4.29 |
| HDPLWRRGCKKYWLISEEEKTQKN [H8G] | 3.31 |
| HDPLWTRHCKKYWLISEEEKTQKN [R6T] | 3.43 |
| HDPLWLRHCKKYWLISEEEKTQKN [R6L] | 2.89 |
| HDPLWPRHCKKYWLISEEEKTQKN [R6P] | 1.82 |
| HDPLWQRHCKKYWLISEEEKTQKN [R6Q] | 3.54 |
| HDPLWNRHCKKYWLISEEEKTQKN [R6N] | 3.85 |
| HDPLWMRHCKKYWLISEEEKTQKN [R6M] | 3.58 |
| HDPLWDRHCKKYWLISEEEKTQKN [R6D] | 4.04 |
| HDPLWHRHCKKYWLISEEEKTQKN [R6H] | 3.51 |
| HDPLWFRHCKKYWLISEEEKTQKN [R6F] | 2.84 |
| HDPLWCRHCKKYWLISEEEKTQKN [R6C] | 3.35 |
| HDPLWWRHCKKYWLISEEEKTQKN [R6W] | 2.46 |
| HDPLWIRHCKKYWLISEEEKTQKN [R6I] | 2.58 |
| HDPLWSRHCKKYWLISEEEKTQKN [R6S] | 3.69 |
| HDPLWKRHCKKYWLISEEEKTQKN [R6K] | 3.32 |
| HDPLWARHCKKYWLISEEEKTQKN [R6A] | 2.99 |
| HDPLWYRHCKKYWLISEEEKTQKN [R6Y] | 2.7 |
| HDPLWERHCKKYWLISEEEKTQKN [R6E] | 4.24 |
| HDPLWVRHCKKYWLISEEEKTQKN [R6V] | 2.98 |
| HDPLWGRHCKKYWLISEEEKTQKN [R6G] | 3.6 |
| MDPLWRRHCKKYWLISEEEKTQKN [H1M] | 3.32 |
